Experimental data: US20110118131A1 (published 2011)
Numbering of substitutions follows the chain as printed. Numbers in names are those of the source.

B1: XPA23 heavy chain S105G (Fab, V domains shown)
VH: EVQLLESGGGLVQPGGSLRLSCAASGFTFSKYFMFWVRQAPGKGLEWVSVISPSGGMTRYADSVKGRFTISRDNSKNTLYLQMNSLRAEDTAVYYCARVGYGGNGDYWGQGTLVTVSS
VL: DIQMTQSPSSVSASVGDRLTIICRASQDINRWLAWYQQTPGNAPKLLIHSATSLQSGVPSRFSGSGSGTDFTLTINSLQPEDFATYYCQQADSFPLTFGGGTKVEIK
notes: Fab, periplasmic extract; also called C5A S105G
B2: XPA23 heavy chain V50L (Fab, V domains shown)
VH: B1 VH with V50L, G105S
VL: B1 VL
notes: Fab, periplasmic extract; also called C5A V50L
B3: XPA23 heavy chain T58V (Fab, V domains shown)
VH: B1 VH with T58V, G105S
VL: B1 VL
notes: Fab, periplasmic extract; also called C5A T58V
B4: XPA23 heavy chain T58P (Fab, V domains shown)
VH: B1 VH with T58P, G105S
VL: B1 VL
notes: Fab, periplasmic extract; also called C5A T58P
B5: XPA23 heavy chain T58I (Fab, V domains shown)
VH: B1 VH with T58I, G105S
VL: B1 VL
notes: Fab, periplasmic extract; also called C5A T58I
B6: XPA23 heavy chain T58L (Fab, V domains shown)
VH: B1 VH with T58L, G105S
VL: B1 VL
notes: Fab, periplasmic extract; also called C5A T58L
B7: XPA23 heavy chain S105I (Fab, V domains shown)
VH: B1 VH with G105I
VL: B1 VL
notes: Fab, periplasmic extract; also called C5A S105I
B8: XPA23 heavy chain V50A (Fab, V domains shown)
VH: B1 VH with V50A, G105S
VL: B1 VL
notes: Fab, periplasmic extract; also called C5A V50A
B9: XPA23 heavy chain S105V (Fab, V domains shown)
VH: B1 VH with G105V
VL: B1 VL
notes: Fab, periplasmic extract; also called C5A S105V
B10: XPA23 heavy chain S105P (Fab, V domains shown)
VH: B1 VH with G105P
VL: B1 VL
notes: Fab, periplasmic extract; also called C5A S105P
B11: XPA23 heavy chain V50G (Fab, V domains shown)
VH: B1 VH with V50G, G105S
VL: B1 VL
notes: Fab, periplasmic extract; also called C5A V50G
B12: XPA23 heavy chain V50I (Fab, V domains shown)
VH: B1 VH with V50I, G105S
VL: B1 VL
notes: Fab, periplasmic extract; also called C5A V50I
B13: XPA23 heavy chain S105T (Fab, V domains shown)
VH: B1 VH with G105T
VL: B1 VL
notes: Fab, periplasmic extract; also called C5A S105T
B14: XPA23 heavy chain V50T (Fab, V domains shown)
VH: B1 VH with V50T, G105S
VL: B1 VL
notes: Fab, periplasmic extract; also called C5A V50T
B15: XPA23 heavy chain T58A (Fab, V domains shown)
VH: B1 VH with T58A, G105S
VL: B1 VL
notes: Fab, periplasmic extract; also called C5A T58A
B16: XPA23 heavy chain T58G (Fab, V domains shown)
VH: B1 VH with T58G, G105S
VL: B1 VL
notes: Fab, periplasmic extract; also called C5A T58G

target: T1, IL-1β (UniProt P01584 117-269); assay: Biacore, Fab periplasmic extract
T1 construct: Antigen of XPA23

Row | fold difference in affinity against the original [fold] | Binder
1 | 0.12 | B1
2 | 0.09 | B2
3 | 0.99 | B3
4 | 1.81 | B4
5 | 0.95 | B5
6 | 0.95 | B6
7 | 0.07 | B7
8 | 0.09 | B8
9 | 0.08 | B9
10 | 1.41 | B10
11 | 0.03 | B11
12 | 0.1 | B12
13 | 0.11 | B13
14 | 0.03 | B14
15 | 0.14 | B15
16 | 0.95 | B16
